Tested on: mouse splenocytes
Assay: IFN-γ production by ELISA after stimulating mouse splenocytes with IL-12 containing conditioned media
Format: cell-based
Conditions: summary, compared with commercial IL-12
Method: Functionality of mIL-12 was examined by incubating mouse splenocytes with mIL-12 and measuring INF-γ. About 2×10^6 mouse splenocytes were stimulated with either commercial recombinant mouse IL-12 (rIL-12) or the CM from mIL-12 retroviral vector transduced and stably expressing A375 cells for 48 hours. Following stimulation, the CM from each culture was collected and measured for IFN-γ production by ELISA (FIG. 5).
Next, CT26, murine colorectal carcinoma cell line was transduced with the mIL-12 retroviral vector and examined whether or not secreted mIL-12 can produce IFN-γ and activate inflammatory genes from immune cells. About 2×10^6 mouse splenocytes were stimulated with either commercial rIL-12 or the CM from mIL-12 expressing CT26 cells at the concentration of 2 ng/mL for 48 hours. Following stimulation, the supernatant and cells from each group were collected and analyzed for the production of IFN-γ via ELISA and the expression of inflammatory genes via qPCR. […] Some preliminary animal studies were performed by implanting 1.5×10^5 CT26 cells stably expressing luciferase gene or CT26 cells stably expressing luciferase and mIL-12 gene from the retroviral vector cells into the right shoulder flank. […] Bio-luminescence images of animals implanted with either CT26 expressing luciferase or luciferase and mIL-12 tumor cells are shown in FIG. 12. […]

B1: mIL-12: mouse IL-12 heterodimer of P40 and P35 secreted by cells transduced with the mIL-12 retroviral vector (protein, UniProt P43432 23-335; P43431 23-215, looked up)
Interleukin-12 subunit beta: MWELEKDVYVVEVDWTPDAPGETVNLTCDTPEEDDITWTSDQRHGVIGSGKTLTITVKEFLDAGQYTCHKGGETLSHSHLLLHKKENGIWSTEILKNFKNKTFLKCEAPNYSGRFTCSWLVQRNMDLKFNIKSSSSSPDSRAVTCGMASLSAEKVTLDQRDYEKYSVSCQEDVTCPTAEETLPIELALEARQQNKYENYSTSFFIRDIIKPDPPKNLQMKPLKNSQVEVSWEYPDSWSTPHSYFSLKFFVRIQRKKEKMKETEEGCNQKGAFLVEKTSTEVQCKGGNVCVQAQDRYYNSSCSKWACVPCRVRS
Interleukin-12 subunit alpha: RVIPVSGPARCLSQSRNLLKTTDDMVKTAREKLKHYSCTAEDIDHEDITRDQTSTLKTCLPLELHKNESCLATRETSSTTRGSCLPPQKTSLMMTLCLGSIYEDLKMYQTEFQAINAALQNHNHQQIILDKGMLVAIDELMQSLNHNGETLRQKPPVGEADPYRVKMKLCILLHAFSTRVVTINRVMGYLSSA
- T-cell activation and IFN-γ production in vitro: as functionally effective as commercial IL-12
